Data reported in paper PMC5038948, “The Role of Neutrophil Proteins on the Amyloid Beta-RAGE Axis” (PLoS ONE, 2016).
Read-outs that look alike come from different tables or passages of the source.

Key:
Aβ1–42 [1] = target: T1, Aβ1–42 (Homo sapiens, UniProt P05067); assay: Far-Western dot blot: binding of Aβ1–42 to spotted neutrophil proteins; conditions: Aβ1–42 […] (56 nM) with protease inhibitor cocktail; 1 μg spotted protein
T1 construct: Amyloid beta 1–42 (Aβ1–42), a known RAGE ligand; purchased Bachem (Torrance, CA)
Description: After spotting, membranes were rinsed with ultrapure water, and Ponceau S (Sigma Aldrich) was used to stain for spotted proteins. Ponceau S was rinsed off with ultrapure water, and membrane blots were blocked for 2 h at room temperature in PBST containing 3% BSA. […] Blots were washed three times with PBST for 10 min, and then incubated with either rabbit anti-RAGE primary antibody (0.8μg/ml) or mouse anti-APP/Aβ (0.25μg/ml) for 2 h at room temperature. Blots were washed three times with PBST for 10 min, and then incubated with donkey anti-rabbit or donkey anti-mouse secondary antibodies at 0.04μg/ml for 45 min at room temperature. Blots were washed three times with PBST. Enhanced chemiluminescent or SuperSignal West femto maximum sensitivity substrates (Pierce) were used to develop blots. Mean dot densities were quantified and normalized to ponceau S dot densities using Image J software (National Institutes of Health (NIH), Bethesda, MD).
Blots were incubated with rocking overnight at 4°C.
(§1) All statistics were performed using Graph Pad Prism 6 (GraphPad Software, La Jolla, CA). Data are represented as mean± SEM of results. […] To obtain dissociation constants (Kd), half-maximal inhibitory concentrations (IC50), and maximum absorbance values, BSA was subtracted as background and values were fitted to a curve of nonlinear regression.

Aβ1–42 binding to RAGE = target: T2, Aβ1–42 binding to RAGE (Homo sapiens, UniProt Q15109); assay: ELISA: competitive inhibition of Aβ1–42 binding to RAGE by neutrophil proteins added simultaneously
T2 construct: purchased R&D Systems Inc. (RAGE Fc chimera); Bachem (Aβ1–42)
T2 sequence (Q15109 with tags, fused parts or gaps limits assumed): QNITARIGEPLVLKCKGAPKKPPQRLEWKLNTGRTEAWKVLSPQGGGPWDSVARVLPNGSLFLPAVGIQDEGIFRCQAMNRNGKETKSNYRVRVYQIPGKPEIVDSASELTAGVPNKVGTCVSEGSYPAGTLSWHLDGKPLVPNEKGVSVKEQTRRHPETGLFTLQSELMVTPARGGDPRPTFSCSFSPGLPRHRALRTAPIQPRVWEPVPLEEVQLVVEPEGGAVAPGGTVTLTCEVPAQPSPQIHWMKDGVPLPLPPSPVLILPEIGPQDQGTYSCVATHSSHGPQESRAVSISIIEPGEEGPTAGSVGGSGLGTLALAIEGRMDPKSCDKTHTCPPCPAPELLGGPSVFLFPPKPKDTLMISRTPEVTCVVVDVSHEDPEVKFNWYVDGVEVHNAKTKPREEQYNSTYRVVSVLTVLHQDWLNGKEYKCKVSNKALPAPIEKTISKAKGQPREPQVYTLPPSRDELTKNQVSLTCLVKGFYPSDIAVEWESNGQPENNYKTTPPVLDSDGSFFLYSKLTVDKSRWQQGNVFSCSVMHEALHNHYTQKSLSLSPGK
Description: (§2) The plates were washed three times with PBS containing 0.05% tween (PBST), and then blocked in PBST containing 3% bovine serum albumin (BSA). Indicated proteins were added to the plate in 50 μL PBST containing 0.1% BSA and incubated at 37°C for 70 mins. Wells were washed four times with PBST, and then incubated with 50 μL of goat anti-RAGE primary antibody (0.5 μg/ml) or mouse anti-APP/Aβ antibody (0.5 μg/ml-1 μg/ml) for 1 h. After washing the wells four times with PBST, 50 μL of rabbit anti-goat at 0.16 μg/ml or donkey anti-mouse at 0.04–0.08 μg/ml secondary antibodies were added for 1 h at room temperature.
as §1, with “results. […] Two-way analysis of variances (ANOVAs) were performed with Dunnett’s multiple comparison tests. […] Kruskal-Wallis tests with Dunn’s multiple comparison tests were used to analyze binding by Far-Western dot blotting (see figure legends 3 and 6 for details on multiple comparison tests).” for “results.”

Aβ1–42 [2] = target: T1, Aβ1–42; assay: ELISA: binding of Aβ1–42 to coated neutrophil proteins; conditions: for Log binding (Aβ1–42): 0.5 μg/well coated protein, with protease inhibitor cocktail, log OD 492 nm, mean ± SEM, n = 3
Description: as §2
as §1, with “results. […] Two-way analysis of variances (ANOVAs) were performed with Dunnett’s multiple comparison tests. […] Kruskal-Wallis tests with Dunn’s multiple comparison tests were used to analyze binding by Far-Western dot blotting (see figure legends 3 and 6 for details on multiple comparison tests).” for “results.”

RAGE Fc chimera [3] = target: T3, RAGE Fc chimera (Homo sapiens, UniProt Q15109); assay: Far-Western dot blot: binding of RAGE to spotted proteins ± GM-0111; parameters: purchased R&D Systems Inc. (Minneapolis, MN); conditions: 1 μg spotted protein (0.5 μg Aβ1–42)
T3 sequence (Q15109 with tags, fused parts or gaps limits assumed): as above
Description: as §1, with “results. […] Two-way analysis of variances (ANOVAs) were performed with Dunnett’s multiple comparison tests. […] Kruskal-Wallis tests with Dunn’s multiple comparison tests were used to analyze binding by Far-Western dot blotting (see figure legends 3 and 6 for details on multiple comparison tests).” for “results.”

RAGE Fc chimera [4] = target: T3, RAGE Fc chimera; assay: ELISA: binding of RAGE to coated neutrophil proteins; parameters: purchased R&D Systems Inc. (Minneapolis, MN); conditions: for Log binding (RAGE): wells coated 0.5 μg/well protein, log-transformed OD 492 nm, mean ± SEM
Description: as §2
Goat anti-RAGE primary antibody at 0.5 μg/ml was used to detect bound RAGE.
as §1, with “results. […] Two-way analysis of variances (ANOVAs) were performed with Dunnett’s multiple comparison tests. […] Kruskal-Wallis tests with Dunn’s multiple comparison tests were used to analyze binding by Far-Western dot blotting (see figure legends 3 and 6 for details on multiple comparison tests).” for “results.”

RAGE Fc chimera [5] = target: T3, RAGE Fc chimera; assay: ELISA: Aβ1–42 binding to RAGE after pre-incubation of Aβ1–42 with neutrophil proteins; parameters: purchased R&D Systems Inc. (RAGE Fc chimera); Bachem (Aβ1–42); conditions: for Kd: read-out: KD value for Aβ1–42 binding to RAGE
Description: as §2
In this set of experiments, the maxisorp plates were coated with RAGE Fc chimera (0.5 μg/well, 83.3 nM) overnight at 4°C.
as §1, with “results. […] Two-way analysis of variances (ANOVAs) were performed with Dunnett’s multiple comparison tests. […] Kruskal-Wallis tests with Dunn’s multiple comparison tests were used to analyze binding by Far-Western dot blotting (see figure legends 3 and 6 for details on multiple comparison tests).” for “results.”

B1: cationic antimicrobial protein of 37kDa (protein)
chain: IVGGRKARPRQFPFLASIQNQGRHFCGGALIHARFVMTAASCFQSQNPGVSTVVLGAYDLRRRERQSRQTFSISSMSENGYDPQQNLNDLMLLQLDREANLTSSVTILPLPLQNATVEAGTRCQVAGWGSQRSGGRLSRFPRFVNVTVTPEDQCRPNNVCTGVLTRRGGICNGDGGTPLVCEGLAHGVASFSLGPCGRGPDFFTRVALFRDWIDGVLNNPGPGPA
notes: neutrophil protein purified from human neutrophils (Athens Research & Technology)
For B1, the “binding of Aβ1–42 (far-Western dot blot)” value (Aβ1–42 [1]) was “strong binding”, the “maximal inhibition of Aβ1–42 binding to RAGE in the absence of protease inhibitors” value (Aβ1–42 binding to RAGE; no protease inhibitors, highest dose of protein) was “complete” and the “inhibition of Aβ1–42 binding to RAGE in the presence of protease inhibitors” value (Aβ1–42 binding to RAGE; with protease inhibitor cocktail, Aβ1–42 11 nM) was “only partial”. The “Log binding (Aβ1–42)” value (Aβ1–42 [2]; Aβ1–42 0 nM (background)) was “• -0.907±0.139 • p = 0.005”, the “Log binding (Aβ1–42)” value (Aβ1–42 [2]; Aβ1–42 3.47 nM) was “• -0.556±0.047 • p<0.0001” and the “Log binding (Aβ1–42)” value (Aβ1–42 [2]; Aβ1–42 13.89 nM) was “• -0.138±0.047 • p<0.0001”. The “Log binding (Aβ1–42)” value (Aβ1–42 [2]; Aβ1–42 27.78 nM) was “• 0.137±0.043 • p<0.0001”, the “Log binding (Aβ1–42)” value (Aβ1–42 [2]; Aβ1–42 55.56 nM) was “• 0.304±0.039 • p<0.0001” and the “maximum absorbance value for Aβ1–42 binding” value (Aβ1–42 [2]; ELISA with protease inhibitors, BSA subtracted, nonlinear regression fit) was 2.86. For the same molecule, the “binding of RAGE (far-Western dot blot)” value (RAGE Fc chimera [3]) was “strong binding”, the “maximum absorbance value for RAGE binding” value (RAGE Fc chimera [4]; ELISA, BSA subtracted as background, nonlinear regression fit) was 2.49 and the “Log binding (RAGE)” value (RAGE Fc chimera [4]; RAGE 0 nM (background)) was -0.623. The “Log binding (RAGE)” value (RAGE Fc chimera [4]; RAGE 0.83 nM) was “• 0.112±0.041 • p<0.0001”, the “Log binding (RAGE)” value (RAGE Fc chimera [4]; RAGE 1.67 nM) was “• 0.228±0.043 • p<0.0001” and the “Log binding (RAGE)” value (RAGE Fc chimera [4]; RAGE 3.33 nM) was “• 0.325±0.064 • p<0.0001”. The “maximum absorbance (MA) for Aβ1–42 binding to RAGE” value (RAGE Fc chimera [5]; Aβ1–42 pre-incubated with CAP37 500 ng/ml) was 3.05, the “maximum absorbance (MA) for Aβ1–42 binding to RAGE” value (RAGE Fc chimera [5]; Aβ1–42 pre-incubated with CAP37 1 μg/ml) was 3.70 and the “maximum absorbance value for Aβ1–42 binding to RAGE” value (RAGE Fc chimera [5]; Aβ1–42 pre-incubated with CAP37 2 μg/ml) was 3.27 OD 492 nm. It also gave a Kd (RAGE Fc chimera [5]; Aβ1–42 pre-incubated overnight 4°C with CAP37 500 ng/ml (21 nM)) of 13.8 nM, a Kd (RAGE Fc chimera [5]; Aβ1–42 pre-incubated overnight 4°C with CAP37 1 μg/ml (42 nM)) of 59.3 nM and a Kd (RAGE Fc chimera [5]; Aβ1–42 pre-incubated overnight 4°C with CAP37 2 μg/ml (83 nM)) of 149 nM.
